Source: article PMC9276808, “Structural identification of riluzole-binding site on human TRPC5” (Cell Discovery, 2022)

Molecular target: the molecule itself
Test: cryo-EM structure; purified hTRPC5(1-764) supplemented with riluzole; single particle analysis, global resolution 2.4 Å

B1: truncated functional human TRPC5 (hTRPC5_(1–764)) (domain or fragment, UniProt Q9UL62 1-764, looked up)
chain: MAQLYYKKVNYSPYRDRIPLQIVRAETELSAEEKAFLNAVEKGDYATVKQALQEAEIYYNVNINCMDPLGRSALLIAIENENLEIMELLLNHSVYVGDALLYAIRKEVVGAVELLLSYRRPSGEKQVPTLMMDTQFSEFTPDITPIMLAAHTNNYEIIKLLVQKRVTIPRPHQIRCNCVECVSSSEVDSLRHSRSRLNIYKALASPSLIALSSEDPILTAFRLGWELKELSKVENEFKAEYEELSQQCKLFAKDLLDQARSSRELEIILNHRDDHSEELDPQKYHDLAKLKVAIKYHQKEFVAQPNCQQLLATLWYDGFPGWRRKHWVVKLLTCMTIGFLFPMLSIAYLISPRSNLGLFIKKPFIKFICHTASYLTFLFMLLLASQHIVRTDLHVQGPPPTVVEWMILPWVLGFIWGEIKEMWDGGFTEYIHDWWNLMDFAMNSLYLATISLKIVAYVKYNGSRPREEWEMWHPTLIAEALFAISNILSSLRLISLFTANSHLGPLQISLGRMLLDILKFLFIYCLVLLAFANGLNQLYFYYETRAIDEPNNCKGIRCEKQNNAFSTLFETLQSLFWSVFGLLNLYVTNVKARHEFTEFVGATMFGTYNVISLVVLLNMLIAMMNNSYQLIADHADIEWKFARTKLWMSYFDEGGTLPPPFNIIPSPKSFLYLGNWFNNTFCPKRDPDGRRRRRNLRSFTERNADSLIQNQHYQEVIRNLVKRYVAAMIRNSKTHEGLTEENFKELKQDISSFRYEVLDLLGNR
notes: The sample was supplemented with riluzole, and Ca2+, DAG and lipids are seen in the map; also called transient receptor potential canonical subfamily member 5; source: purified
stoichiometry N: 4
